Measurements from paper PMC6447637, “Ca^2+-dependent regulation of sodium channels NaV1.4 and NaV1.5 is controlled by the post-IQ motif” (Nature Communications, 2019).

B1: NaV1.4 CTerm Long (residues 1599-1764) (domain or fragment)
chain: ENFNVATEESSEPLGEDDFEMFYETWEKFDPDATQFIAYSRLSDFVDTLQEPLRIAKPNKIKLITLDLPMVPGDKIHCLDILFALTKEVLGDSGEMDALKQTMEEKFMAANPSKVSYEPITTTLKRKHEEVCAIKIQRAYRRHLLQRSMKQASYMYRHSHDGSGDD
notes: The text layer of the ITC plots in D1 (p5, p9); not shown: GST, N-terminal, kept
B2: NaV1.4 CTerm Long (residues 1599–1764), freed of CaM for ITC (domain or fragment)
chain: B1 chain
notes: H. sapiens NaV1.4 (SCN4A) C-terminal domain, a.a; the protein may have carried GST in the titrations; source: E. coli BL21-CodonPlus RIL, co-expressed with CaM, purified (Glutathione Sepharose; CaM removed by a TFP and Ca2+ wash; eluted with glutathione; 70% pure)
B3: NaV1.4 CTerm Short (residues 1599–1754), freed of CaM for ITC (domain or fragment)
chain: ENFNVATEESSEPLGEDDFEMFYETWEKFDPDATQFIAYSRLSDFVDTLQEPLRIAKPNKIKLITLDLPMVPGDKIHCLDILFALTKEVLGDSGEMDALKQTMEEKFMAANPSKVSYEPITTTLKRKHEEVCAIKIQRAYRRHLLQRSMKQASYMYLTRAAAS
notes: additional 7 residues at the C-terminus of the construct; source: E. coli BL21-CodonPlus RIL, co-expressed with CaM, purified (Glutathione Sepharose; CaM removed by a TFP and Ca2+ wash; eluted with glutathione; 70% pure)

Legend:
Settings in all cases: both partners purified
[1] = molecular target: T1, calmodulin (full-length mammalian, CALM2) (R. norvegicus, UniProt P0DP30 1-149); test: ITC; CaM species in the syringe, NaV CTerm in the cell; Ca2+-saturating: 20 mM MOPS, 150 mM NaCl, 1 mM MgCl2, 50 µM EGTA with 1 mM CaCl2; VP-ITC; fitted to a single binding site per monomer, error of the fit; one replicate
T1 construct: Full-length mammalian calmodulin (R. norvegicus CALM2; 100% amino acid identity with H. sapiens CaM), 148 residues; apo CaM and (Ca2+)4-CaM are the same protein without and with 1 mM CaCl2; the two conditions are two assays; also called CaM; WT CaM; source: E. coli BL21-CodonPlus RIL, purified (two Phenyl FF columns)

[2] = molecular target: T1, calmodulin (full-length mammalian, …); test: ITC; CaM species in the syringe, NaV CTerm in the cell; Ca2+-free: 20 mM MOPS, 150 mM NaCl, 1 mM MgCl2, 50 µM EGTA; VP-ITC; fitted to a single binding site per monomer, error of the fit; one replicate
[3] = molecular target: T2, calmodulin (full-length mammalian calmodulin, R. norvegicus CALM2) (R. norvegicus, UniProt P0DP30 1-149); test: ITC; Ca2+-free: CTerm (2–25 µM) in the sample cell, CaM (30–1000 µM) as titrant; 20 mM MOPS, 150 mM NaCl, 1 mM MgCl2, 50 µM EGTA; VP-ITC, single binding site fit, one replicate
T2 construct: full-length mammalian calmodulin, R. norvegicus CALM2, 100% amino acid identity with H. sapiens CaM, in pET24b; Ca2+-free (apo, 50 µM EGTA) and Ca2+-saturated ((Ca2+)4, 1 mM CaCl2) states are the same molecule; the assays tell them apart; also called CaM; CaM WT; source: E. coli BL21-CodonPlus RIL; for ITC expressed alone and purified (two Phenyl FF columns); for crystals co-expressed and …

[4] = molecular target: T2, calmodulin (full-length mammalian …); test: ITC; Ca2+-saturating: CTerm (2–25 µM) in the sample cell, CaM, CaM12 or CaM34 (30–1000 µM) as titrant; 20 mM MOPS, 150 mM NaCl, 1 mM MgCl2, 50 µM EGTA with 1 mM CaCl2; VP-ITC, single binding site fit, one replicate

| Binder | Ka [1] | Ka [2] | Kd [3] | Kd [4] |
| --- | --- | --- | --- | --- |
| B1 | 3.63e+06 M⁻¹ | 5.85e+07 M⁻¹ |  |  |
| B2 |  |  | 17 nM | 275 nM |
| B3 |  |  | 114 nM | 305 nM |
